Measured values: a protein production outcome set (Wang et al. 2014)

Experiment: label from the status in PepcDB records

Sequence | protein production
MFKIDLFSNKKAVEGFILFQLTIVMISILISYKMAYSMTHIIEQNIIFNIIFGIVGFAVVYFLHEFIHNIMFRVMSKGNKPTYRIKSGLITTHMPNVYFKKWQYMTIMLAPLVIITSVLLVIFSYFAYSSIIFIACFHIGYCVMDMYFLTGLLNKHVQLIEDTEEGIKFYTQAPAPAQEFRTELKS | failed
MSAEQDKEPIALKRVRGGDSGLDGLGGPNIQLGSPDKKKRKANTQGSSFPPLSEYAPPPNPNSDHLVAANPFDDSYNTISYKPLPSSNPYLGPGYPGFGGYSTFRMPPHVPPRMSSPYCGPYSLRNQPHPFPQNPLGMGFNRPHAFNFGPHDNSNFGNPPYNNVLTQDINMPGQHFRQGSAENFSQIPPQNVGQVSNPDLASNFAPGNNSNFTSPLETNHSFIPPPNAFGQAKAPLPKQDFTQGATKTPNQNSSTHPPHLNMEDPVNQSNVELKNVNRNNVVQENSRSGSAEATNNHANGTQNKPRQPRGAADLCTPDKSRKFSLLPSRHGHSSSDPVYPCGICTNEVNDDQDAILCEASCQKWFHRICTGMTETAYGLLTAEASAVWGCDTCMADKDVQLMRTREAFGPPAVGGDA | not failed
TLPGRISRERRGHLLLLGLDRVAKRNAFDLPMLDDLVAALGEYEADDQLRCALLFAHGEHFTAGLDLANVGETFRQGWKLPEGAVDPWGTFGGRRPSKPLVVAVQGYCYTIGIELMLAADINLCASNARFAQLEVQRGILPFGGATLRMHQVAGWGNAMRWLLTGDEFDAHEAYRLGLVQEVTAPEDLLDHAIALAERVAAQAPLGVRATLGSARQALLEGEAVAAAALPEAARRLLDSEDAKEGLRALQERRPGRFE | failed
MRQDAEVIMKLTDADNAADGIFFPALEQNMMGAVLINENDEVMFFNPAAEKLWGYKREEVIGNNIDMLIPRDLRPAHPEYIRHNREGGKARVEGMSRELQLEKKDGSKIWTRFALSKVSAEGKVYYLALVRDASVEMAQKEQTRQLIIAVDHLDRPVIVLDPERHIVQCNRAFTEMFGYCISEASGMQPDTLLNIPEFPADNRIRLQQLLWKTARDQDEFLLLTRTGEKIWIKASISPVYDVLAHLQNLVMTFSDITEERQIRQLEGNILAAMCSSPPFHEMGEIICRNIESVLNESHVSLFALRNGMPIHWASSSHGAEIQNAQSWSATIRQRDGAPAGILQIKTSSGAETSAFIERVADISQHMAALALEQEKSRQHIEQLIQFDPMTGLPNRNNLHNYLDDLVDKAVSPVVYLIGVDHIQDVIDSLGYAWADQALLEVVNRFREKLKPDQYLCRIEGTQFVLVSLENDVSNITQIADELRNVVSKPIMIDDKPFPLTLSIGISYDLGKNRDYLLSTAHNAMDYIRKNGGNGWQFFSPAMNEMVKERLVLGAALKEAISNNQLKLVYQPQIFAETGELYGIEALARWHDPLHGHVPPSRFIPLAEEIGEIENIGRWVIAEACRQLAEWRSQNIHIPALSVNLSALHFRSNQLPNQVSDAMHAWGIDGHQLTVEITESMMMEHDTEIFKRIQILRDMGVGLSVDDFGTGFSGLSRLVSLPVTEIKIDKSFVDRCLTEKRILALLEAITSIGQSLNLTVVAEGVETKEQFEMLRKIHCRVIQGYFFSRPLPAEEIPGWMSSVLPLKI | failed
MQDFRFVAAAIVFIFTLILVTVRPWKIDIGYGALIGAFVSIILGISTPADVIKVWNIIWNPTFTFVAIIAMSLVLDYAGFFEYYAIRISKFAGGNGIKLFVFIVILGSLTAAFFANDGAVLVLTPIVLSIMDMTGIGKKGAVAYIMAIGFISDSSSLPFVISNLVNIIGSGYFGISFASYAKVMVIPDIISVVSSLGLLLLYYRKDIPRIYQVESLPNPKNVIKDPLIFKLAFPFMAIVVLAYFLTSFDLVPVSFVAVPAATILIVVARYNHRINTRSIIAEAPWQVVVFSLGMYIVVYGFGDNGLTSVLVHVTKSILLLGNPLSTVLAGLLFGAMAGSMNNLPSVMMGALTISHLNQNSFLIYANVIGNDIGPKFTPIGSLATLLWIYTLQRKHGVQITPIYYMKVGFIIAFPVLVLTLLSLYATIYFGL | failed
MILSRYIARRFLRMVFIVFLAFFGLMMLIDVLDQMRRFSDEGITLVQAGLLSLLRVPATLYTILPLIVILAAVALFLGLARSSELVVVRAAGRSGLRFLVAPMVVALALGTVAVTVLNPIVAGTSRQYDAAAGRLARGEASILSISKEGLWLRQGGSGEQTVIHALRSNTDGTRLYAVTFLTFDAEGRPTGRIAAEQAALERGYWQLSGAKSWDLTEANPEARAGLPGNLRVTSELTREGIQDSFGDPSAIPIWELPAYVAGLERAGFSARKHRVWMQMEFALPATLAAMVLVAAGFTMRHSRFGGTGRMVLLALLGGFSLFFLRNFAQVLGENGQIPILLAAWSPPLIGVMGSLGLLLHLEDG | failed
MNSIKTPLLFLLIAFSSIFQSFSAGKPLGYEIKATIKGVKQADTVYLARYYADKRFYQDTAIADAKGFVSFSDTTHLKEGMYFLLLPGQKVFDFILNPSTLSFSIDTTNLIKSAHFKNSPDNTAFYDYQRFFMNQKTKADSINNLMKSAAATQKTVLTKQLSDIDSTMLAYIQNFLKTNPNSLFTAILKTTKDVDVPPAPKKADGSIDSSWQFHYYKKHYFDNVNFSDDRLIRTPVLVNKVDGYFKNLVVQRPDSIIKEIDMIISKCNPKGDLFEYYVREYTYKYETSQVMGMDAVFVHLGKEYYMKGKCFWATPETVKKIKERVDLLDPLLLGKKAPNLYMTDTTGTYRYLYDVQAKYTILFFWDSQCGHCQQETPKLYDWWLKNRAKGIQVYAANIERKDEEWLKFIRSKKIGGWLNVRDSKNHTDFKITYDIYATPVLYVLDKNKVIIAKRIGYENLDDFLVQYEKSLKTK | failed
MSEQNEKEGAVGSLERGLLIIRVLLDAPGPMSLAELAQELALGPSTVHRLLGTLTKLGQVVREPRGKRYLAAPQVLASLSFQHPITLVRLACRSAIEELRERTGETSAFVLFIGYERLVQDFVIGQRLLSPNYQTWLRSPMHGSASGKLLLSTVPENNWVDLIGHEPYQAHTPSTITTYEEMVAEIQAIRRQHYCVSKNEGYEGVSAFGYPVVVLGKTVGCITLTVESASLNESREAFLIQEMLRCVKSIQAVSGSLKLLHDWLF | failed
MTTLLRNETPRRCAFWRGARGILAFVLALALTIQGVAPAWAFLGLGGFTIKDEVELGRKFDVLIKSRMPLVEDPEVKVYVQDIVARLLEQAPPQPFDFKTNVLLHNSLNAFASPGGFIFVHTGLVMQMDHEAEVAGVLAHELAHATQRHIAGRIEKMQTTSILSMAGALAGAFLGGGSGKGAAMAGSIAAGQSAMLNYSRVDETEADEIGLRYLIAAGFRPEGMVGAFEKIRKKQWAMGTDIPSYLSTHPAVNERINSLSARIAALPADIRSRPNDDARFLRVRTICRARYGDPAVSERLFADAPAGDCLAQLGKAILFSRQNRVAEATAAFDKALQCSPKDQLIWREAGRFHYTKGDKGRAAAMLQRATLMNPDDYMALFFYARLLADSGQPQKSYQYFDEVLRRLPEDAEVHYYYGRVLGASGQPFKAYLHLAYSSLYSNDKHKTESFEEQARAQARTPEEMAELERFAATYQERKAFW | failed
MAPDQAKPAPFRDQFHRVLGVIRRGKLLILACVLLVVAPTIVFLQQATPRYTANAAVLIEAPDATDSLLDRSDMSRTRLNDLMITTEAEVLGSTPLARRVIDKLGLDQDPEFNARLRKPTAFQRVTFWLNPINWIPDGWRAGRKDEATMTPKVREELQRARVTATFLGRLSVKPKRRSFVIDLEFTATSREKSALIVNTLADLYVFDRLEAGFDETKRVNEWLAQRLESLRGDVALAEAAVETYRAENGLRPVGERQGTVANQQLTELNSRLVLARADLAQKQARLDQVRSLSRGGGVATASDVLQSSLIQQLRQREAEVRSALSEAEKTYGERHPKIIGMRADLGQLQSSIGGEIGKIASSAEGDVEIAAIGVRTLEREIVGLRQEGDVQGGAIVRLRELERQADSSRSLYEAFLSRFKRNAEQEQIQRANARLLSPADIPASPSYPRKIPILLVMMVVGFGLGIGLVFLVEGLDGTVHSTEELEALVGLPPLAVIPVVRGRGGGAVVLARPRAPIAHAFRNLRTALTLNGEETRRRIVMVSSSVPKEGKSFVSLGLALTYARAGERVLLIDADVHRSSLAATIGIDGTRGLAQVLRGEATLDQVVTRPPGMDLDFLAAGEASAQEELFDASTLGALLSEPASRYDRIIIDTAPVLAVADARIVAGVADQVIYLVRWGSTQQTAVRNGIKLLRDVRAPLAGMVLSQVDVRRHAVYGYGDYGASYGRYQEYYAE | failed
GSSGSSGPSSPSIDQVEPYSSTAQVQFDEPEATGGVPILKYKAEWRAVGEEVWHSKWYDAKEASMEGIVTIVGLKPETTYAVRLAALNGKGLGEISAASEFKTQPVREPSAPKLEGSGPSSG | not failed
MSLKNKFKNFFSLDDEEYEYEYIETDREEIPEEHESKDRTAYQSKAAGKQNVVSLQSVQKSSKVVLSEPRVYAEAQEIADHIKNRRAVVVNLQRIQHDQAKRIVDFLSGTVYALGGDIQRIGADIFLCTPENVDVSGTISELIEEEHQRW | failed
DDLIFYKGVDGRYLGANKAFCDFFGKESMEGLSDADILDAEQLRLTQKSDEEVVRFRKNIRLEYGGGHPLRGRFFFSITKSPILLRGKVVGILGIARD | failed
RFEHGTVLAECLSPASPDTSCELLKRAAKFLAYVHGSDDPASGRIGGVRKEVRNEVRMWLRAVLPDEPSDGANELFEEWWALLEGIGLPPQPRRDAHAFNWLVTDNDRIIAVDLEAARWRPMGYELAQLT | failed
SAPFDVIGPQEPILAVVGEDAELPCRLSPNVSAKGMELRWFREKVSPAVFVSREGQEQEGEEMAEYRGRVSLVEDHIAEGSVAVRIQEVKASDDGEYRCFFRQDENYEEAIVHLKVAA | failed
MRRSPWRIAYTTKPADTAVPARHPSMAHIFFAASIQRHIATPEREVDARTLGEALEAVFAAQPRLRGYILDDQGALRKHLAVFVDGQPVRDRQHLSDALGENSRVYVIQALTGG | failed
MNPENKMMLMAYGIFAIAGIISGILAYAPLGWIIGWIIYILAPKLLLNLVPDLPEELRNERVILRKTFWSFFFFWLYFTGLTYTLITNYEPVAYYEKALYYNITKG | failed
MEGQTHDAQNNVPEHDNPLMNVKNPSSNLFSKKDAQCLSVLCNGKWLQIVRSSPKVSCEASTCPSHILTKVGENYVAESEKMHKKVISFSSKTFSQGTLQFTMRANGTPHFVFKLENQKDVYVASLSSNVQDQNSYMIHLQRGESSASSSHLVGRINVSTLFSEKVLEREFVLFSSNGENLKIPRTRKNRGLSKKVVHAVKNERRTARLSRTSFIPDLGSWDEQFQAQNYDCLLKNKLPTNLETLAVVVKQETIEDEIGGWGLKFLKRSPMFQRSNDASETETSTSSISMNVVIPSGIHGGPEDGPSSLIERWKSQGNCDCGGWDLCCSLTLLKGQPRKDQYFELFIEVKLSFISSNTSIL | failed
MGKRLYAVAYDIPDDTRRVKLANLLKSYGERVQLSVFECYLDERLLEDLRRRARRLLDLGQDALRIYPVAGQVEVLGVGPLPELREVQVL | not failed
MMNASSISSRFKDLFVTPSIVFDFDGTLAIGHGPVLAYALCVAPEGSKDFLERVRRELRRYDDGQSIYRDGYDIVAKLASELGIDDGTMSVAYGESRKLLGSDLAPVEHVRGIKDILSSLKGHARLVLATNAPENGVHDLLRQWGVADLFDQLHFVVGKPAGLISIISDLQLDGPVLAVGDIYEFDLSPAAQLGADTALVGATATISEAKVSMRGDSIADLPLLAWVSSRVSSS | failed
